Like-named read-outs stand apart in the source and are kept apart here.
How the values were obtained:
[1] = molecular target: cytochrome f (PetA) with a C-terminal six-histidine tag, F. diplosiphon SF33 (Fremyella diplosiphon SF33); experiment: co-purification
[2] = molecular target: cytochrome f (PetA) with a C-terminal six-histidine tag, F. diplosiphon SF33 (Fremyella diplosiphon SF33); experiment: co-purification; remark: listed apart in the source
[3] = molecular target: cytochrome b6f complex of spinach (monomeric unit) (spinach) (UniProt P16013); experiment: native gel or EMSA

stoichiometry N (relative to cyt f) [1]	stoichiometry N (relative to cyt f) [2]	stoichiometry N [3]	Substance
1.09	0.69	–	cytochrome b6 (PetB), F. diplosiphon SF33 (natural protein)
–	–	2	cytochrome b6f complex of spinach (monomeric unit) (from UniProt P16013 36-320; P00165 1-215; P08980 52-230; P00166 1-160)
0.17	0.21	–	iron-sulfur protein (ISP), full length, F. diplosiphon SF33 (natural protein)
0.45	0.29	–	subunit IV (PetD), F. diplosiphon SF33 (natural protein)
